Test results taken from US7067274B2, “Compositions and methods for the screening pro-apoptotic compounds” (Genentech, Inc., priority 2003, dated 2006).

How the values were obtained:
[1] = target: T1, ΔCARD human caspase 9 (Homo sapiens, UniProt P55211, D305A/E304A/E306A); test: Determination of caspase-9 inhibitory constants (Ac-LEHD-AFC hydrolysis); assay type: biochemical; conditions: 300 nM ΔCARD caspase 9, 100 μM Ac-LEHD-AFC, 37° C.; read-out: Caspase-9 inhibition Ki(app)
T1 construct: made in house
T1 sequence (P55211 139-315 E304A/D305A/E306A limits assumed): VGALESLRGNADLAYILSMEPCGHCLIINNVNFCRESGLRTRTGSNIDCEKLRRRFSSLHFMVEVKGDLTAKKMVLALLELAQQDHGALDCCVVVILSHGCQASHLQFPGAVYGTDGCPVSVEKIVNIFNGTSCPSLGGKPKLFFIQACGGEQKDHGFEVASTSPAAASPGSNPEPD
T1 sequence (P55211 316-416 limits assumed): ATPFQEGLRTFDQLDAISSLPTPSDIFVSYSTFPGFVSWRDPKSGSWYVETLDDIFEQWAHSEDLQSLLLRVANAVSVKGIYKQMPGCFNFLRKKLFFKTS
Procedure: ΔCARD (caspase recruitment domain) human caspase 9 (lacking the first 138 residues) with Ala substitutions at residues 304 to 306 was produced as described previously (Boatright et al., (2003) Mol Cell 11: 529–541). The third BIR of […] (residues 252–348) was also prepared as described previously (Sun et al., (2000) J Biol Chem 275(43): 33777–81).
Determination of Caspase-9 Inhibitory Constants: Recombinant ΔCARD caspase 9 (300 nM final concentration in the assay) was preactivated in salt-free caspase buffer (20 mM PIPES, 10 mM EDTA, 0.1% CHAPS and 10% (w/v) sucrose, pH 7.2) for 15 min at 37° C. Following this, a range of inhibitor concentrations were preincubated with the enzyme for 20 min at 37° C. The assay was started by the addition of Ac-LEHD-AFC (100 μM final concentration) and measured kinetically for 30 min using an fmax Fluorescence Plate Reader (Molecular Devices) at an excitation wavelength of 405 nm and an emission wavelength of 510 nm. Reaction mixtures were thermostatically controlled at 37° C. The individual Ki values for the inhibitors [I] were determined from the uninhibited substrate hydrolysis rate (vo) and the inhibited rates (vi), so that a plot of (vo/vi)−1 against [I] gives Ki(app), the equilibrium inhibition constant in the presence of substrate (Salvesen and Nagase, (1989) Proteolytic enzymes: A practical approach. R. J. Beynon and J. S. Bond. Oxford, IRL Press: 83–104).

[2] = target: Hid-FAM (5-carboxyflourescein-conjugated AVPFAK(5-FAM)K); test: Fluorescence polarization affinity measurement with Hid-FAM probe; assay type: binding; conditions: 5 nM Hid-FAM, apparent Kd from EC50
Procedure: Polarization experiments were performed on an Analyst™ HT 96-384 (Molecular Devices Corp.). […] The reactions were read after an incubation time of 10 minutes at room temperature with standard cut-off filters for the fluorescein fluorophore (λex=485 nm; λem=530 nm) in 96-well black HE96 plates (Molecular Devices Corp.). Fluorescence polarization values were plotted as a function of the protein concentration, and the EC50 values were obtained by fitting the data to a 4-parameter equation using Kaleidagraph™ software (Synergy software, Reading, Pa.). The apparent Kd values were determined from the EC50 values.
(§1) The binding affinity of the Hid-FAM probe for each of the BIR domains was determined directly using a fluorescence polarization-based assay and the result is shown graphically in FIG. 8.

[3] = target: Smac-9mer peptide (AVPIAQKSE); test: Fluorescence polarization competition assay, Smac-9mer peptide; assay type: binding; conditions: competition with 5 nM Hid-FAM probe, Ki from IC50
Procedure: (§2) Samples were read after a 10-minute incubation. Fluorescence polarization values were plotted as a function of the antagonist concentration, and the IC50 values were obtained by fitting the data to a 4-parameter equation using Kaleidagraph™ software (Synergy software; Reading, Pa.). Inhibition constants (Ki) for the antagonists were determined from the IC50 values (Keating et al., (2000) Putting the pieces together: contribution of fluorescence polarization assays to small-molecule lead optimization. Proceedings of SPIE: In-Vitro Diagnostic Instrumentation.).

[4] = target: wild-type mature Smac protein; test: Fluorescence polarization competition assay, mature Smac protein; assay type: binding, human; conditions: competition with 5 nM Hid-FAM probe, Ki from IC50
Procedure: A PCR product containing amino acids 56–239 of Smac/DIABLO (accession number SMAC_HUMAN) was cloned into the XbaI/XhoI sites of a pet21b+ (Novagen) generating a C-terminal His6 fusion. Pet21bSmac was transformed into Escherichia coli strain BL21(DE3) competent cells (Stratagene). Overnight cultures were diluted 1:100 and grown at 37° C. in LB media with 50 μg/ml carbenicillin to an A600 of 0.8 with vigorous shaking. Isopropyl-β-D-1-thiogalactopyranoside (IPTG) was added to a final concentration of 1 mM and cultures were grown overnight at 16° C. Cell pellets were resuspended in Buffer A (50 mM Tris (pH 8.0), 300 mM NaCl, 0.5 mM PMSF, 2 mM benzamidine, 5 mM β-mercaptoethanol) with 5 mM imidazole and placed on ice for 30 minutes. Cells were homogenized, microfluidized, and centrifuged at 15,000 rpm for 45 minutes. Supernatant was loaded onto a Ni-NTA agarose column (Qiagen™), washed with 10 column volumes Buffer A with 10 mM imidazole, and eluted with 10 column volumes Buffer A with 300 mM imidazole. Fractions containing Smac protein were pooled, concentrated and loaded on a Superdex™ 200 sizing column. Protein eluted over one column volume into 50 mM Tris (pH 7.6), 300 mM NaCl, 0.5 mM PMSF, 2 mM benzamidine and 5 mM DTT. Fractions containing Smac protein were pooled and dialyzed against 3 changes of buffer containing 50 mM Tris (pH 7.6), 0.5 mM PMSF, 2 mM benzamidine and 5 mM DTT. The dialyzed sample was loaded onto a Q-Sepharose™ FF column (Pharmacia) and eluted over a 10 column volume gradient from zero to 1 M NaCl in buffer 50 mM Tris (pH 7.6), 0.5 mM PMSF, 2 mM benzamidine and 5 mM DTT. The cDNA encoding full-length ML-IAP plus a N-terminal His6-tag was cloned into the pET15b(+) expression vector (Novagen). ML-IAP was expressed in E. coli strain BL21(DE3)pLysS. […] The protein concentration of purified proteins was determined from the absorbance at 280 nm based on the molar absorption coefficients calculated from the Edelhoch relationship (Edelhoch, (1967) Biochemistry 6: 1948–1954).
as §2, §1

[5] = target: T2, caspase-9 (Homo sapiens, UniProt P55211); test: Caspase-9 co-immunoprecipitation in transfected 293T cells; assay type: cell-based; conditions: Flag-tagged BIR domain proteins, IP anti-Flag
T2 construct: expressed in transfected cells; host or cells: 293T cells
T2 sequence (P55211 1-315 limits assumed): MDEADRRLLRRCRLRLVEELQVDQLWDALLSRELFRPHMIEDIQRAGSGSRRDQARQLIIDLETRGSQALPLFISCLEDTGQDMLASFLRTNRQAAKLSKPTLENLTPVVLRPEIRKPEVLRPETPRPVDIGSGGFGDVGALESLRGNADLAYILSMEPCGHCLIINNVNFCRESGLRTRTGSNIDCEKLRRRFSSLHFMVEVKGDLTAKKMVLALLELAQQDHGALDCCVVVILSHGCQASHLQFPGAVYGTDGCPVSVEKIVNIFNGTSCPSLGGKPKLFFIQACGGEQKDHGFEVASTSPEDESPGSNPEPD
T2 sequence (P55211 331-416 limits assumed): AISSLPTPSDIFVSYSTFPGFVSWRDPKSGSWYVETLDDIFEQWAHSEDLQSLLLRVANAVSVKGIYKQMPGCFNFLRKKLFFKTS
Procedure: 293T cells were transiently transfected with caspase-9 and Flag-tagged BIR domain proteins or vector. After 40 h, cells were lysed in NP40 lysis buffer (120 mM Tris, 150 mM NaCl, 1% NP-40, 1 mM DTT and protease inhibitor cocktail) and lysates immunoprecipitated (IP) with anti-Flag antibody. Samples were then Western blotted with anti-caspase-9 and anti-Flag antibodies. […] When overexpressed, caspase-9 undergoes autocatalytic processing and it is the processed form that physically interacts with XIAP and ML-IAP BIR domains.

[6] = tested on: MCF7 cells; test: Inhibition of doxorubicin-induced apoptosis in transfected MCF7 cells; assay type: cell-based; conditions: MCF7 cells transiently transfected, doxorubicin 0.5 μg/ml
Procedure: MCF7 cells were transiently transfected with the reporter plasmid pCMV-βgal and either vector control alone or BIR domain constructs. Following transfection, cells were exposed to doxorubicin (adriamycin; 0.5 μg/ml), stained with X-gal and apoptosis assessed by counting live and dead transfected cells. Percentage apoptosis represents the mean value of at least four sample points and is representative of three independent experiments.

B1: ML-IAP-BIR: wild-type ML-IAP BIR domain construct, amino acids 63–179 of accession number BIR7_HUMAN (protein)
chain: TEEEEEEGAGATLSRGPAFPGMGSEELRLASFYDWPLTAEVPPELLAAAGFFHTGHQDKVRCFFCYGGLQSWKRGDDPWTEHAKWFPSCQFLLRSKGRDFVHSVQETHSQLLGSWDP
modifications: left off: small tags and cut ends
Ki [1]: 3200 nM
Kd [2]: 21 nM
Ki [3]: 200 nM
Ki [4]: 26 nM
caspase-9 binding efficiency (co-immunoprecipitation, Western blot) [5]: co-imnunoprecipitates processed caspase-9
inhibition of doxorubicin-induced apoptosis [6]: confers resistance
